From the DeepSol protein solubility set

Assay: soluble on expression in E. coli; label from the status in PepcDB or PDB records

Sequence	soluble on expression in E. coli
MSLATPSFGNSSPQLTFTHVANFMNDAAADVSAVDAKQLAQIRQFLKANKTNLIESLNTIRQNVTSSGDHNKLRSTIANLLQINVDNDPFFAQSEDLSHAVEFFMSERSSRLHIVYSLLVNPDIDLETYSFIDNDRFNVVGKLISIISSVIQNYDIITASSLAHDYNNDQDMFTIVSLVQLKKFSDLKFILQILQILNLMILNTKVPVDIVNQWFLQYQNQFVEFCRNINSTDKSIDTSSLQLYKFQNFQDLSYLSETLISRISSLFTITTILILGLNTSIAQFDIQSPLYMDTETFDTVNSALENDVATNIVNEDPIFHPMIHYSWSFILYYRRALQSSESFDDSDITKFALFAESHDVLQKLNTLSEILSFDPVYTTVITVFLEFSLNFIPITASTSRVFAKIISKAPEQFIENFLTNDTFEKKLSIIKAKLPLLNESLIPLINLALIDTEFANFELKDICSFAVTKSSLNDLDYDLIADTITNSSSSSDIIVPDLIELKSDLLVAPPLENENSNCLLSIPKSTKGKILTIKQQQQQQQNGQQPPTTSNLIIFLYKFNGWSLVGRILQNLLHSYMEKGTQLDDLQHELMISIIKLVTNVVDPKTSIEKSSEILSYLSNSLDTSASTINGASIIQVIFEIFEISLQRKDYTSIVQCCEFMTMLTPNYLHLVSSYLNKSDLLDKYGKTGLSNMILGSVELSTGDYTFTIQLLKLTKVFIRESLSLKNIHISKRSKIDIINKLILHAIHIFESYYNWKYNNFLQKFEIAFHLTLIFYDVLHDVFTINPHQKDQLIISSSANKLLQLFLTPMDSIDLAPNTLTNILISPLNTTTKILGDKILGNLYSKVMNNSFKLCTLLISIRGSNRDLKPSNLEKLLFINSSKLVDVYTLPSYVHFKVQIIELLSYLVEAPWNDDYPFLLSFLGEAKSMAFLKEVLSDLSSPVQDWNLLRSLYIFFTTLLESKQDGLSILFLTGQFASNKKINDESSIDKKSSILTVLQKNSLLLDSTPEEVSCKLLETITYVLNTWTNSKIFIKDPKFVNSLLAKLKDSKKLEGHHHHHH	not soluble
MSPLKPLYKLYEWYISRNLRRDRMPRHVAIIMDGNRRYSKLQGSMNPIEGHKKGIETLEKVLDWCVDLGIEIVTAYAFSTENFKRPEKEVKGLMKLFRENFEAIASNEKIHKNRVRVRAVGKLELLPEDVRRAIEIAEKSTEQYSDRLVNIAIGYDGRQEIVDATRKIAEDVKAGLIDPEDIDEDMINRNLYTAGLEDPHLIIRTSGEERLSGFLLWQSSYSELYFCDSLWPELRKVDFLRAIRSYQQRERRFGV	soluble
MKTIHIRELADWLDGALQAARFKDYCPNGLQVEGKAEIAHIITGVTASEALLRAAIERGADAVLVHHGWFWRNEDRRVLGPRRTRLALALGHELNLLAYHLPLDAHPQWGNNAQLARVLGLQAETGPDGAPRTCGADNLVWLGSAPGVQTVAQLQQRVAERLGRTPLVVGEPDRPVRRVAWCTGGAQGMLADAVDAGADAYITGEASESTVHLARETGVAFVGAGHHATERYGVQALGEAVARQFGIRVEFIDIDNPVLEHHHHHH	not soluble
MWRIELKHAVNWELKMKFFVLPELPTPDVVESGVWRRAIVLDGRAVAVMAYPESERTIVVEGNFENREWEAVRRKLVEYLGLQNPEELYRFMDGDEKLRMLKNRFYGFGRAGLMSMSVFEGIAKAIIQQQISFVVAEKLAAKIVGRFGDEVEWNGLKFYGFPTQEAILKAGVEGLRECGLSRRKAELIVEIAKEENLEELKEWGEEEAYEYLTSFKGIGRWTAELVLSIALGKNVFPADDLGVRRAVSRLYFNGEIQSAEKVREIARERFGRFARDILFYLFLYDRFFSKKTELV	soluble
VDFHGYARSGIGWTGSGGEQQCFQTTGAQSKYRLGNECETYAELKLGQEVWKEGDKSFYFDTNVAYSVAQQNDWEATDPAFREANVQGKNLIEWLPGSTIWAGKRFYQRHDVHMIDFYYWDISGPGAGLENIDVGFGKLSLAATRSSEAGGSSSFASNNIYDYTNETANDVFDVRLAQMEINPGGTLELGVDYGRANLRDNYRLVDGASKDGWLFTAEHTQSVLKGFNKFVVQYATDSMTSQGKGLSQGSGVAFDNEKFAYNINNNGHMLRILDHGAISMGDNWDMMYVGMYQDINWDNDNGTKWWTVGIRPMYKWTPIMSTVMEIGYDNVESQRTGDKNNQYKITLAQQWQAGDSIWSRPAIRVFATYAKWDEKWGYDYTGNADNNANFGKAVPADFNGGSFGRGDSDEWTFGAQMEIWW	soluble
MGSDKIHHHHHHMELDILDALGEGWTLTPAGGITGEAYIASTGQSKLFLKRNSSPFLAILSADGIVPKLLWTKRIYSGDVISAQQFIEGQELEPEMMERPEVARLLGKIHDSKELLFMLQQLDQRPIEPDELLRQCRLYFQPAELAQPELIEQAIDYLSERLPYVRTDEQVVCHSDLNHNNWLVGTDGHLYLNDWDDAIIADRAYDLGMMLYSYVDEECWPEWFAHYGHPLTKDLKQRMYWYVVAQAVLSIYWYEDTMHPDATESYLFLAQLLEMEQED	not soluble
SNQDEPRCLFVKDADSQVDLQITFRGFSRPDPQLAASRLLRRVLAGGGCSRLHLNLRERLGIVYSVDAQVAAYDETGCFSIELSTAPENLLTAVEEVLGETRKLAAEPVGAEELRRVRQGYFFDLAYSEDSTFEMQVRYGWGELMGMVKGIDEERAEVEAVDEGTLQAVARRLFAPAALNLVAVGPVTATAKRRIEQLLRRYAKEFPTSSQPPGP	not soluble
MSPEKQPLPAALVGSHVRAAAGTPADLATDRKFWTGLSRAVQERIADDWERTREAYGAARQQHYFSAEFLMGRALLNNLTNLGLVDEAAAATRELGHELTDILEIENDAALGNGGLGRLAACFLDSAVTQDYPVTGYGLLYRFGLFRQSFNEGFQVEKPDPWREEEYPFTIRRASDQLVVCFDDMKTRAIPYDMPITGYGTHNVGTLRLWKAEPWEEFDYDAFNAQRFTDAIIERERVSDICRVLYPNDTTYEGKKLRVRQQYFFTSASLQAMIQDHLAHHKDLSNFAEFHSVQLNDTHPVLAIPELMRLLMDEHDMGWEESWAIVSKTFAYTNHTVLTEALEQWDEQIFQQLFWRVWEIIAEIDRRFRLERAADGLDEETINRMAPIQHGTVHMAWIACYAAYSINGVAALHTEIIKAETLADWYALWPEKFNNKTNGVTPRRWLRMINPGLSDLLTRLSGSDDWVTDLDELKKLRSYADDKSVLEELRAIKAANKQDFAEWILERQGIEIDPESIFDVQIKRLHEYKRQLMNALYVLDLYFRIKEDGLTDIPARTVIFGAKAAPGYVRAKAIIKLINSIADLVNNDPEVSPLLKVVFVENYNVSPAEHILPASDVSEQISTAGKEASGTSNMKFMMNGALTLGTMDGANVEIVDSVGEENAYIFGARVEELPALRESYKPYELYETVPGLKRALDALDNGTLNDNNSGLFYDLKHSLIHGYGKDASDTYYVLGDFADYRETRDRMAADYASDPLGWARMAWINICESGRFSSDRTIRDYATEIWKLEPTPAVKK	soluble
MAIQFELYKSPARKDEEDKELYHARVVNFQHIDTDYLAKEIQQATSLTEGDVKAVLESLSHFMGSRLREGERVHLDGIGYFQVKLNSLEPITSPKLKANQMKLKANIGFKADKKLRSSVSVVKVERSKLKLHSVPRSNEEIDRLLTAYFSNNQILTRSDFQGLCKLTLTTAARHIKRLKEEKKLQNINTRQSPVYVPMPGYYGKPEVEDTVK	not soluble
MGSDKIHHHHHHMIKLIVSDIDGTLVDSQGQLLPATITGVQAAVARGAQMVLASARSPKGMFGIAQQLGINSTMIAYNGALTATTDVNDRLTVFEEQAVDPKLAQAVQTVVAHDWPAASISIYSNNNWLVATNGPWEQQEATGIGYAPHVTDLGTWLQRMPTPVHKMMIMADPDIIQAIEQRLSRNEFSGLAVYRSKETYLEIVAAGVTKAAALMKLLQDDQVTPAETLAFGDNFNDVAMLQTAGIGVAMANAPQPVKEAANIVTTDNNHNGIQLTLAQYFADVTR	not soluble
MSLMTEMQQRAQLHRQIWKIADEVRGAVDGWDFKQYVLGTLFYRFISENFTDYMQAGDSSIDYAAMPDSIITPEIKDDAVKVKGYFIYPGQLFCNIAAEAHQNEELNTKLKEIFTAIESSASGYPSEQDIKGLFDDFDTTSSRLGSTVADKNKRLAAVLKGVAELDFGNFENHHIDLFGDAYEYLISNYAANAGKSGGEFFTPQSVSKLIARLAVHGQEKVNKIYDPACGSGSLLLQAKKQFDEHIIEEGFFGQEINHTTYNLARMNMFLHNVNYNQFHIELGDTLTNPKLKDSKPFDAIVSNPPYSINWIGSDDPTLINDDRFAPAGVLAPKSKADFAFILHALNYLSGRGRAAIVSFPGIFYRGGAEQKIRQYLVEGNYVETVIALAPNLFYGTGIAVNILVLSKHKDNTDIQFIDASGFFKKETNNNVLIEEHIAEIVKLFADKADVPHIAQNAAQQTVKDNGYNLAVSSYVEAEDTREIIDIKQLNAEIGETVAKIERLRREIDEVIAEIEAEGHHHHHH	soluble
MQTPKPTLELLTCDAAYRENPTALFHQVCGDRPATLLLESADIDSKDDLKSLLLVDSALRITALGDTVTIQALSDNGASLLPLLDTALPAGVENDVLPAGRVLRFPPVSPLLDENARLCSLSVFDAFRLLQGVVNIPTQEREAMFFGGLFAYDLVAGFEALPHLEAGNNCPDYCFYLAETLMVIDHQKKSTRIQASLFTASDREKQRLNARLAYLSQQLTQPAPPLPVTPVPDMRCECNQSDDAFGAVVRQLQKAIRAGEIFQVVPSRRFSLPCPSPLAAYYVLKKSNPSPYMFFMQDNDFTLFGASPESSLKYDAASRQIEIYPIAGTRPRGRRADGTLDRDLDSRIELDMRTDHKELSEHLMLVDLARNDLARICTPGSRYVADLTKVDRYSYVMHLVSRVVGELRHDLDALHAYRACMNMGTLSGAPKVRAMQLIADAEGQRRGSYGGAVGYFTAHGDLDTCIVIRSALVENGIATVQAGAGIVLDSVPQSEADETRNKARAVLRAIATAHHAQETF	soluble
MSLKGIVEKSVGDLETLAFDGRTYIEYLNAVTESEKALQSNHFELSLRTEATQGLVLWIGKVGERADYMALAIVDGHLQLSYDLGSQPVVLRSTVKVNTNRWLRVRAHREHREGSLQVGNEAQVTGSSPLGATQLDTDGALWLGGMQKLPVGQALPKAYGTGFVGCLRDVVVGHRQLHLLEDAVTKPELRPCPTEGHHHHHH	soluble
MSLYKTADGREIFIVDAHTHFWDGSPENQRNIHGKQFVDCFYAYHSALSPPEEKWEKSRFEKYSEDDIYRDLFVDGPDDMAIIQTTVLGDFYKTGFGCIERSTRMAARNPGRFIVNGAFDPRDGEKALEYIHYMKETHDITGVKLYTAEWHGDSRGWKLTDPAAYKCFELCDKLGIRNMHVHKGPTIIPLSKDSFSVGDVDDAATDFQGLNWIVEHCGLPRLDDFCWIAVQETNVYGGLAVALPFIHTRPRYFAEVIAELLFWLGPDKILFGSDYAIWTPKWLVDRFWNFQIPEDIAAERGVQLTDEIKEKILGLNAARLYGIDVDAKRRDFADHPVLIAAEGHHHHHH	soluble
GGSGGTSTAGNPNVNVPNNQITAKSKKEFIQQAMPIAKAIEEKWGVPAEVVIAQAALESGWGKHVKGNAYFGIKGKGSQGSINFGTHEVINGKKISINDNFASYGGFGDAANGYGEFLNKNKRYREAFKHKDNPVEFAKAIARAGYATDPDYANKLTKIIQSNKF	not soluble
MSLIAPVLKGKGVLITRAKEQASSLSRLIEEAGGVPIEVPLLSFIKTMDVYEEVGASIQSYEWIVFTSANAVRFFFNTWPRQELKKLPSIAAVGSSTQRELSRYGISVDLMPNEYVAESLVETMVKRLKPCRVLFPKGNLARPTVKVGLETNGFIVDEMTVYETKRPLEAKVMLCEAFQKHRIEIITFTSPSAVDHFVTLLDREFILHEHLLYAYIGPIAAARAKQRGLPVHIVAKTYTGEGLVNAICDFVKEDGEGHHHHHH	soluble
